From article PMC4619645 come the findings set out here.

Bounds are passed on as bounds.

For experiment [1], the target named is invariant surface glycoprotein ISG65 (Trypanosoma brucei brucei (endogenous in bloodstream-form cells, MITat 1.2, Lister 427)). Nature of the experiment: native gel or EMSA; Blue Native PAGE of bloodstream-form cell lysates, followed by western blotting; carried out as described in ref. 57. (A gel shift assay detects complexes by their altered migration in electrophoresis.)

In experiment [2] the target is invariant surface glycoprotein ISG75 (Trypanosoma brucei brucei (endogenous in bloodstream-form cells, MITat 1.2, Lister 427)). The experiment is described as above.

The substance “invariant surface glycoprotein ISG65 (natural protein)” had a stoichiometry N in experiment [1] of 2.

For the substance “invariant surface glycoprotein ISG75 (natural protein)”, in experiment [2], the stoichiometry N was more than 2.

The term stoichiometry N denotes a count of units in the complex or per binding partner.
